Results reported in paper PMC6646387, “Identification of intracellular cavin target proteins reveals cavin-PP1alpha interactions regulate apoptosis” (Nature Communications, 2019).

B1: mCherry-Cavin1 (natural protein, mouse, UniProt O54724 1-392, looked up)
chain: MEDVTLHIVERPYSGFPDASSEGPEPTQGEARATEEPSGTGSDELIKSDQVNGVLVLSLLDKIIGAVDQIQLTQAQLEERQAEMEGAVQSIQGELSKLGKAHATTSNTVSKLLEKVRKVSVNVKTVRGSLERQAGQIKKLEVNEAELLRRRNFKVMIYQDEVKLPAKLSVSKSLKESEALPEKEGDELGEGERPEDDTAAIELSSDEAVEVEEVIEESRAERIKRSGLRRVDDFKKAFSKEKMEKTKVRTRENLEKTRLKTKENLEKTRHTLEKRMNKLGTRLVPVERREKLKTSRDKLRKSFTPDHVVYARSKTAVYKVPPFTFHVKKIREGEVEVLKATEMVEVGPEDDEVGAERGEATDLLRGSSPDVHTLLEITEESDAVLVDKSDSD
notes: Murine Cavin-1 (PTRF, caveolae-associated protein 1); oligomeric in MCF-7 cells by burst brightness; also called mCherry-tagged Cavin1; source: MCF-7, transfected, in lysate (cytosolic or PNS fraction)
B2: mCherry-Cavin3 (natural protein, mouse, UniProt Q91VJ2 1-260, looked up)
chain: MGESALEPGPVPETPAGGPVHAVTVVTLLEKLATMLEALRERQGGLAERQGGLAGSVRRIQSGLGALSRSHDTTSNTLTQLLAKAERVGSHADAAQERAVRRAAQVQRLEANHGLLVARGKLHVLLFKEETEIPARAFQKVPELLGPEDQLVLGPDQPEDEVGESSEEEPVESRAQRLRRTGLQKVQSLKRALSSRKAAQPTPVKPPRVGPVRSSEGPSEGQPAAQPEMESELETALEPEPPQPTKEDPEKPVLQIESAA
notes: Murine Cavin-3 (PRKCDBP), amplified from NIH-3T3 fibroblast cDNA, in an mCherry vector; also called mCherry-tagged Cavin3; source: MCF-7, transfected, in lysate (cytosolic or PNS fraction)

Molecular target: T1, GFP-PP1α (UniProt P62136 1-330)
T1 construct: serine/threonine-protein phosphatase PP1alpha catalytic subunit (PP1α); construct provided by the Trinkle-Mulcahy Laboratory; printed both as GFP-PP1α and PP1α-GFP; also called PP1α-GFP; PP1alpha-GFP; source: MCF-7 or A431, transfected, in lysate
T1 sequence (P62136 whole entry): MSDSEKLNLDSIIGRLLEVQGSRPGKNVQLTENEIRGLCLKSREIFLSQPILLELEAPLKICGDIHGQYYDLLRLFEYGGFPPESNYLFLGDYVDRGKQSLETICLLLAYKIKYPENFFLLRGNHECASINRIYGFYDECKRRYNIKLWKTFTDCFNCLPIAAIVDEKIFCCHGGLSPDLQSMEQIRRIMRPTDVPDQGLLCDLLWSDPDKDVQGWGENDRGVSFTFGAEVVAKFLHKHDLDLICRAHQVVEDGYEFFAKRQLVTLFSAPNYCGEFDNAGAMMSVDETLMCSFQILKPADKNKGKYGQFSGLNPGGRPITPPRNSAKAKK
Test: single-molecule coincidence detection; PNS fraction of MCF-7 cells cotransfected with GFP-PP1α and Cherry-Cavin1 or Cherry-Cavin3, in PBS, diluted to about 1 nM; two-colour confocal detection; C = mCherry/(GFP+mCherry); oligomeric state from burst brightness
Details: partners not purified

Binder | coincidence ratio | stoichiometry N
B1 | 0.7 | 
B2 | 0.5 | 1
